The record followed here is patent US20070104726A1.

The target in assay [1] is CD21 (CR2) on human CD21+ Raji lymphoblastoid cells (human) (UniProt P20023). Description: flow cytometry on Raji cells, 100 nM; reference monomeric C3d (Calbiochem).
Assay [2] concerns the target IgG constant region-CD21 fusion protein (UniProt P20023). In words: ELISA, IgG constant region-CD21 fusion coated; reference monomeric C3d (Calbiochem). A general note: In an ELISA, binding on a coated surface is turned into a signal by an enzyme label.

In the case of “linear trimer of human C3d, called C3d3 or APT2029”, the fold signal intensity increase against C3d (Calbiochem) in assay [1] worked out at 6.4 fold. Besides, in assay [2], the fold increase in gradient of the linear portion of the binding curve against monomeric C3d is 3.4 fold.
